Experimental findings from publication PMC7058931, “DNA topoisomerase IIIβ promotes cyst generation by inducing cyst wall protein gene expression in Giardia lamblia” are described below.

Data set [1] has as its target T1, TOP3β (DNA topoisomerase IIIβ) (Giardia lamblia WB, UniProt A8B577 1-973).
T1 sequence: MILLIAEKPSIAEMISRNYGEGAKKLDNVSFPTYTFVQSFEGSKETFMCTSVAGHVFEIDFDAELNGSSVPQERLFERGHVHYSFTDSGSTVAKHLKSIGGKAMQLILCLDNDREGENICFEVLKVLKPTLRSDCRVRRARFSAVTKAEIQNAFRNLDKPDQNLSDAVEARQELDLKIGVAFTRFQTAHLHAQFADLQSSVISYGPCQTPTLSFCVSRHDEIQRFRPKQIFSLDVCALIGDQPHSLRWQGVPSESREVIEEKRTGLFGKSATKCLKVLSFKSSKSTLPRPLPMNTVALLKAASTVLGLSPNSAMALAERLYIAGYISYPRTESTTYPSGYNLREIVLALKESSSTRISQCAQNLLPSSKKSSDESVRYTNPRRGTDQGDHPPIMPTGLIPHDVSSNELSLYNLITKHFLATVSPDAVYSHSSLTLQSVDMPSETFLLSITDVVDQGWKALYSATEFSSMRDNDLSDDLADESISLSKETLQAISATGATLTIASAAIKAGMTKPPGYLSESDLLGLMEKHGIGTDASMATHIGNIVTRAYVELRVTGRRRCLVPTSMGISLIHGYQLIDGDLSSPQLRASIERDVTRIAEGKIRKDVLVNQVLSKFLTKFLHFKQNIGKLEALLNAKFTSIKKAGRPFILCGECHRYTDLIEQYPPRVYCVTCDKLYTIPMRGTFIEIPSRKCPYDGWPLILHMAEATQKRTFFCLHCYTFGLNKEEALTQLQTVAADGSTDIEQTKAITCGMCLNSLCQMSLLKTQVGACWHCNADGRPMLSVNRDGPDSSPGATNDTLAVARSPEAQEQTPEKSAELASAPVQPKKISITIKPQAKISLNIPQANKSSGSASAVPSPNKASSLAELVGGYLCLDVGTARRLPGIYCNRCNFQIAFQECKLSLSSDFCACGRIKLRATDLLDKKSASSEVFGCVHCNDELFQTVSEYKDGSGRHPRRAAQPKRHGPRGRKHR
As to the kind of experiment: EMSA; EMSA: 0.02 pmol 32P probe, 5 ng protein, 20 µl, 0.5 µg poly(dI-dC), 15 min at room temperature, 6% acrylamide gel; buffer, salt and pH not given (cited reference). The settings on record: protein: recombinant, tags: C-terminal V5 and His.

For data set [2], the target named is T1, TOP3β (DNA topoisomerase IIIβ). The data set is described as follows: EMSA; strong; EMSA: 0.02 pmol 32P probe, 5 ng protein, 20 µl, 0.5 µg poly(dI-dC), 15 min at room temperature, 6% acrylamide gel; buffer, salt and pH not given (cited reference). To be noted: protein: recombinant; tags: C-terminal V5 and His; label: 5'-32P. For orientation: In EMSA bound probe runs differently from free probe, usually more slowly.

Data set [3] has the same target. As to the kind of experiment: EMSA; supershifted by anti-TOP3β; EMSA: 0.02 pmol 32P probe, 5 ng protein, 20 µl, 0.5 µg poly(dI-dC), 15 min at room temperature, 6% acrylamide gel; buffer, salt and pH not given (cited reference). The settings on record: protein: recombinant, tags: C-terminal V5 and His.

B1: 18S-60/-31 (dsDNA)
DNA 1: CCGTGCCAGGCGGCGGCCCCCGCGCAGGGA
DNA 2: TCCCTGCGCGGGGGCCGCCGCCTGGCACGG
Take B1: the binding result in data set [1] (label: 5'-32P) is on record as “no binding”. On to CTGGCTAACAGTCTACAGTCTACAATTTACAGTATACAATCTACA (ssDNA) [cwp1-90/-46F], for which the binding result in data set [1] (label: 32P) was “binds”.

B2: cwp1-90/-46 (dsDNA)
DNA 1: CTGGCTAACAGTCTACAGTCTACAATTTACAGTATACAATCTACA
DNA 2: TGTAGATTGTATACTGTAAATTGTAGACTGTAGACTGTTAGCCAG
Consider B2, for which the binding result in data set [1] (label: 5'-32P) was “binds”. As to TAGACTGATGCTGTAGAGGTCAACAGATAA (ssDNA) [cwp2-60/-31F], in data set [1] (label: 32P), the binding result is “binds”.

B3: ran-51/-20 (dsDNA)
DNA 1: TAAAATAAATTAAATCGAAATTAAAACTTTAA
DNA 2: TTAAAGTTTTAATTTCGATTTAATTTATTTTA
With B3, in data set [1] (label: 5'-32P), the binding result is listed as “binds”.

B4: cwp2-60/-31 (dsDNA)
DNA 1: TAGACTGATGCTGTAGAGGTCAACAGATAA
DNA 2: TTATCTGTTGACCTCTACAGCATCAGTCTA
As to B4, the binding result in data set [2] is listed as “binds”.

B5: cwp1-45/-1 (dsDNA)
DNA 1: GTTTACAACTCTCAGATCAAGAAACACAGAAATAAAATATCAGGG
DNA 2: CCCTGATATTTTATTTCTGTGTTTCTTGATCTGAGAGTTGTAAAC
On to B5, for which, in data set [3] (label: 5'-32P), the binding result was “binds”. For the molecule GTTTACAACTCTCAGATCAAGAAACACAGAAATAAAATATCAGGG (ssDNA) [cwp1-45/-1F], the binding result in data set [1] (label: 32P) was “binds”.

B6: 18S-30/-1 (dsDNA)
DNA 1: GGCGCCCGGCCCGCGGCGCCCGCGCCCGGC
DNA 2: GCCGGGCGCGGGCGCCGCGGGCCGGGCGCC
On to B6, for which the binding result in data set [1] (label: 5'-32P) is “no binding”. Take GTCTTTCCCAAAAAATAAGTTACTACTGATATGTTTTCTC (ssDNA) [cwp3-30/+10F]: in data set [3] (label: 32P), the binding result is reported as “binds”.

B7: cwp3-30/+10 (dsDNA)
DNA 1: GTCTTTCCCAAAAAATAAGTTACTACTGATATGTTTTCTC
DNA 2: GAGAAAACATATCAGTAGTAACTTATTTTTTGGGAAAGAC
For B7, the binding result in data set [2] is recorded as “binds”. On to GGCGCCCGGCCCGCGGCGCCCGCGCCCGGC (ssDNA) [18S-30/-1F], for which the binding result in data set [1] (label: 32P) was “no binding”.
